Biological target: 4xSH3lig::Cas12a (SEQ ID NO: 187)
Experiment: cell-based or functional assay

B1: VirD2::SH3dom (SEQ ID NO: 186) (other)
chain: MPDRAQVIIRIVPGGGTKTLQQIINQLEYLSRKGRLELQRSARHLDIPLPPDQIHELARSWVQETGTYDESQPDEERQQELTTHIIVSFPAGTSQVAAYAASREWAAEMFGSGAGGGRYNYLTAFHIDRDHPHLHVVVNRRELLGHGWLKISRRHPQLNYDALRIKMAEISLRHGIALDASRRAERGITERPITYAQYRRLEREQARQIRFEDADLEQSSPQGDHPEFSQPFDTSPFEASAGGPEDMPRPNNRQNESQVHLQEPAGVSNEAGVLVRVALETERLAQPFVSETILADDIGSGSSRVAEGRVESANRTPDIPRAATEAATHTTHDRQRRAKRPHDDDGGPSGAKRVTLEGIAVGPQANAGEQDGSSGGSSGGSMSGSKKRRIKQDAEYVRALFDFNGNDEEDLPFKKGDILRIRDKPEEQWWNAEDSEGKRGMIPVPYVEKYSGSGGSSGGSSGPLVRQAGTSRPSPPTATTRASTATDSLSATAHLQQRRGVLSKRPREDDDGEPSERKRERDERSKDGRGGNRR
  increase of green shoots over the negative control, EF1α site: ~3 fold
  increase of green shoots over the negative control, polyubiquitin site: ~2 fold
